Residue numbers refer to the chain shown, from its start.
B1: D1 human anti-CXCR4 monoclonal antibody (antibody, V domains shown)
VH: EVQLVQSGGGLVQPGGSLRLSCAAAGFTFSSYSMNWVRQAPGKGLEWVSYISSRSKTIYYADSVKGRFTISRDNARNSLYLQMNSLRDEDTAVYYCARDYGGQPPYYYYYGMDVWGQGTTVTVSS
VL: VIWVTQSPSSLSASVGDRVTITCRTSQGISSWLAWYQQKPEKAPELLIYAASSLQSGVPSRFSGSGSGTDFTLTISSLQPEDFATYYCQQYNSYPRTFGQGTKVEIK
B2: E2 human anti-CXCR4 monoclonal antibody (antibody, V domains shown)
VH: B1 VH with K56R, R76K, Y107H
VL: B1 VL with V1E, W3V, V4L, T25A, S31N, E45K, L46S

What was measured:
[1] = target: T1, human CXCR4 (C-X-C chemokine receptor 4) (human, UniProt P61073 1-352); assay: cell-based or functional assay
T1 sequence (P61073 whole entry): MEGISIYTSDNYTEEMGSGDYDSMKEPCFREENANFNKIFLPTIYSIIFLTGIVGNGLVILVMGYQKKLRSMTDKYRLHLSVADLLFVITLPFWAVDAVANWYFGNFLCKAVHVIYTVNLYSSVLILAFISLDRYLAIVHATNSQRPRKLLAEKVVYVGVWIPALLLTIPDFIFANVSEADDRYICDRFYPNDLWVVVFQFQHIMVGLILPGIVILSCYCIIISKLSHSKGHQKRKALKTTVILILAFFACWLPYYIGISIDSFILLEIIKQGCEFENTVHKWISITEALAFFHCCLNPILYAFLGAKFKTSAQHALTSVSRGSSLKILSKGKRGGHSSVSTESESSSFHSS

[2] = target: T1, human CXCR4 (C-X-C chemokine receptor 4); assay: displacement of 100 pM ^125I-CXCL12 from CEM cells
Procedure: The anti-CXCR4 antibodies were serially diluted 1:3 to yield a range of concentrations from 300 nM to 137 pM. […] An irrelevant antibody of the same isotype was used as a negative control.

[3] = target: T1, human CXCR4 (C-X-C chemokine receptor 4); assay: flow cytometry on CEM cells (native human CXCR4), FITC anti-human IgG secondary
Procedure: The antibodies were then mixed with CEM cells and allowed to bind before being detected with a FITC-conjugated anti-human IgG secondary antibody. The cells were then analyzed by fluorescence cytometry.

Binder | EC50 for inhibition of CXCL12-induced calcium flux in CEM cells [1] [nM] | EC50 [2] [nM] | EC50 [3] [nM]
B1 | 0.57 | 28.6 | 80
B2 | – | – | 290
